PMC10958042

B1: ATGL (PNPLA2, patatin-like phospholipase domain-containing protein 2), human, full length / perilipin-1, mouse (mPlin1) (parent)
chain 1: MFPREKTWNISFAGCGFLGVYYVGVASCLREHAPFLVANATHIYGASAGALTATALVTGVCLGEAGAKFIEVSKEARKRFLGPLHPSFNLVKIIRSFLLKVLPADSHEHASGRLGISLTRVSDGENVIISHFNSKDELIQANVCSGFIPVYCGLIPPSLQGVRYVDGGISDNLPLYELKNTITVSPFSGESDICPQDSSTNIHELRVTNTSIQFNLRNLYRLSKALFPPEPLVLREMCKQGYRDGLRFLQRNGLLNRPNPLLALPPARPHGPEDKDQAVESAQAEDYSQLPGEDHILEHLPARLNEALLEACVEPTDLLTTLSNMLPVRLATAMMVPYTLPLESALSFTIRLLEWLPDVPEDIRWMKEQTGSICQYLVMRAKRKLGRHLPSRLPEQVELRRVQSLPSVPLSCAAYREALPGWMRNNLSLGDALAKWEECQRQLLLGLFCTNVAFPPEALRMRAPADPAPAPADPASPQHQLAGPAPLLSTPAPEARPVIGALGL
chain 2: MSMNKGPTLLDGDLPEQENVLQRVLQLPVVSGTCECFQKTYNSTKEAHPLVASVCNAYEKGVQGASNLAAWSMEPVVRRLSTQFTAANELACRGLDHLEEKIPALQYPPEKIASELKGTISTRLRSARNSISVPIASTSDKVLGATLAGCELALGMAKETAEYAANTRVGRLASGGADLALGSIEKVVEFLLPPDKESAPSSGRQRTQKAPKAKPSLVRRVSTLANTLSRHTMQTTAWALKQGHSLAMWIPGVAPLSSLAQWGASAAMQVVSRRQSEVRVPWLHNLAASQDESHDDQTDTEGEETDDEEEEEESEAEENVLREVTALPNPRGLLGGVVHTVQNTLRNTISAVTWAPAAVLGTVGRILHLTPAQAVSSTKGRAMSLSDALKGVTDNVVDTVVHYVPLPRLSLMEPESEFRDIDNPSAEAERKGSGARPASPESTPRPGQPRGSLRSVRGLSAPSCPGLDDKTEASARPGFLAMPREKPARRVSDSFFRPSVMEPILGRAQYSQLRKKS
B2: ATGL (PNPLA2, patatin-like phospholipase domain-containing protein 2), human, full length / CIDEC (FSP27), human (parent)
chain 1: B1 chain 1
chain 2: MEYAMKSLSLLYPKSLSRHVSVRTSVVTQQLLSEPSPKAPRARPCRVSTADRSVRKGIMAYSLEDLLLKVRDTLMLADKPFFLVLEEDGTTVETEEYFQALAGDTVFMVLQKGQKWQPPSEQGTRHPLSLSHKPAKKIDVARVTFDLYKLNPQDFIGCLNVKATFYDTYSLSYDLHCCGAKRIMKEAFRWALFSMQATGHVLLGTSCYLQQLLDATEEGQPPKGKASSLIPTCLKILQ

Variants of: B1
Assay: LUMIER: Protein A-ATGL variant and firefly luciferase-partner co-expressed in HEK293T, lysates immunoprecipitated on IgG-coated plates, co-precipitated partner measured as luciferase luminescence
Conditions: with perilipin-1, mouse (mPlin1), transient co-transfection, IgG-coated LUMITRAC plates, 2 h at 4 °C, three PBS washes, Bright-Glo luciferase reagent, triplicates per assay, two …, parent: 0.26, not graded, scale: log2 fold change of co-immunoprecipitated luminescence relative to wild-type ATGL within each experiment

Row | Variant | screen value
1 | chain 1 I70A | -0.501
2 | chain 1 I70K | -0.495
3 | chain 1 G153A | -0.209
4 | chain 1 G153K | -0.674
5 | chain 1 F35E | -0.17
6 | chain 1 F35A | -0.185
7 | chain 1 L102K | -1.19
8 | chain 1 Q140A | -0.00146
9 | chain 1 F348E | 0.112
10 | chain 1 G189E | -1
11 | chain 1 E314A | -0.247
12 | chain 1 L261E | -0.624
13 | chain 1 P258L | -0.67
14 | chain 1 N180L | 0.0119
15 | chain 1 A104E | -1.07
16 | chain 1 A453E | 0.218
17 | chain 1 K92L | 0.107

Row | Variant | screen value
18 | chain 1 G66A | -0.406
19 | chain 1 G66L | -0.803
20 | chain 1 H109E | -0.442
21 | chain 1 L62A | 0.475
22 | chain 1 L62K | 0.457
23 | chain 1 P103K | -1.36
24 | chain 1 G59L | -0.00134
25 | chain 1 L159A | -0.915
26 | chain 1 K275A | -0.55
27 | chain 1 A434L | 0.0211
28 | chain 1 P86K | -0.8
29 | chain 1 P156K | -0.552
30 | chain 1 N39E | -0.0832
31 | chain 1 E125L | -0.268
32 | chain 1 E368A | -0.0883
33 | chain 1 G16K | 0.265
34 | chain 1 L178A | -0.664

Other lines, results leading:

Row | screen value | Variant
35 | -0.527 | chain 1 S87E
36 | 0.0206 | chain 1 S87A
37 | -0.0364 | chain 1 T41A
38 | -0.355 | chain 1 Q140K
39 | 0.128 | chain 1 R113L
40 | -0.0594 | chain 1 R113K
41 | -0.000717 | chain 1 R351L
42 | -0.504 | chain 1 R163K
43 | -0.367 | chain 1 R329E
44 | 0.0463 | chain 1 R95L
45 | -0.788 | chain 1 R95K
46 | -0.205 | chain 1 V328A
47 | -0.304 | chain 1 V127L
48 | -0.529 | chain 1 S106K
49 | -0.232 | chain 1 S158A
50 | -0.452 | chain 1 S158E
51 | 0.313 | chain 1 Q396A
52 | -0.0219 | chain 1 Y415A

Same assay, conditions: with perilipin-1, mouse (mPlin1), transient co-transfection, IgG-coated LUMITRAC plates, 2 h at 4 °C, three PBS washes, Bright-Glo luciferase reagent, triplicates per assay, two …, parent: -0.37, not graded, scale: log2 fold change of co-immunoprecipitated luminescence relative to wild-type ATGL within each experiment

Row | Variant | screen value
53 | chain 1 I70A | -0.781
54 | chain 1 I70K | -0.759
55 | chain 1 G153A | -0.215
56 | chain 1 G153K | -0.772
57 | chain 1 F35E | -0.197
58 | chain 1 F35A | -0.158
59 | chain 1 L102K | -0.807
60 | chain 1 Q140A | -0.191
61 | chain 1 F348E | -0.626
62 | chain 1 G189E | -1.43
63 | chain 1 E314A | 0.211
64 | chain 1 L261E | -1.14
65 | chain 1 P258L | -1.35
66 | chain 1 N180L | -0.626
67 | chain 1 A104E | -0.823
68 | chain 1 A453E | 0.0778
69 | chain 1 K92L | 0.166

Row | Variant | screen value
70 | chain 1 G66A | 0.198
71 | chain 1 G66L | -0.433
72 | chain 1 H109E | -0.386
73 | chain 1 L62A | -0.248
74 | chain 1 L62K | 0.284
75 | chain 1 P103K | -0.898
76 | chain 1 G59L | -0.613
77 | chain 1 L159A | 0.395
78 | chain 1 K275A | -0.709
79 | chain 1 A434L | 0.452
80 | chain 1 P86K | -0.498
81 | chain 1 P156K | -0.726
82 | chain 1 N39E | -0.558
83 | chain 1 E125L | -0.225
84 | chain 1 E368A | -0.602
85 | chain 1 G16K | 0.718

The remaining lines, values ahead:

Row | screen value | Variant
86 | -0.625 | chain 1 S87E
87 | -0.536 | chain 1 S87A
88 | -0.45 | chain 1 T41A
89 | 0.00731 | chain 1 Q140K
90 | 0.163 | chain 1 R113L
91 | 0.272 | chain 1 R113K
92 | -0.298 | chain 1 R351L
93 | -0.582 | chain 1 R163K
94 | -0.537 | chain 1 R329E
95 | 0.332 | chain 1 R95L
96 | -0.635 | chain 1 R95K
97 | -0.0406 | chain 1 V328A
98 | -0.288 | chain 1 V127L
99 | -0.667 | chain 1 S106K
100 | 0.188 | chain 1 S158A
101 | -0.376 | chain 1 S158E
102 | -0.0639 | chain 1 Q396A
103 | -0.00379 | chain 1 Y415A

Same assay, conditions: with perilipin-1, mouse (mPlin1), transient co-transfection, IgG-coated LUMITRAC plates, 2 h at 4 °C, three PBS washes, Bright-Glo luciferase reagent, triplicates per assay, two …, parent: -0.37, not graded, value at the no-binding floor (a bound), scale: log2 fold change of co-immunoprecipitated luminescence relative to wild-type ATGL within each experiment

Row | screen value | Variant
104 | -1.6 | chain 1 L178A

Variants of: B2
Assay: as above
Conditions: with CIDEC (FSP27), transient co-transfection, IgG-coated LUMITRAC plates, 2 h at 4 °C, three PBS washes, Bright-Glo luciferase reagent, triplicates per assay, two …, parent: 0.17, not graded, scale: log2 fold change of co-immunoprecipitated luminescence relative to wild-type ATGL within each experiment

Row | screen value | Variant
105 | -0.529 | chain 1 N180L
106 | 0.56 | chain 1 A453E
107 | 0.302 | chain 1 V328A
108 | -0.00157 | chain 1 H109E
109 | 0.312 | chain 1 F35E

Same assay, conditions: with CIDEC (FSP27), transient co-transfection, IgG-coated LUMITRAC plates, 2 h at 4 °C, three PBS washes, Bright-Glo luciferase reagent, triplicates per assay, two …, parent: 0.24, not graded, scale: log2 fold change of co-immunoprecipitated luminescence relative to wild-type ATGL within each experiment

Row | screen value | Variant
110 | -0.574 | chain 1 N180L
111 | 0.847 | chain 1 A453E
112 | -0.193 | chain 1 V328A
113 | -0.00996 | chain 1 H109E
114 | 0.00116 | chain 1 F35E
